# Results from patent publication US20050142131A1 (Eli Lilly, published 2005).
# T1: human amyloid beta fragment 1-20 (human, UniProt P05067 672-691)
# T1 construct: range 1-20; also called human Aβ 1-20
# T1 peptide (looked up): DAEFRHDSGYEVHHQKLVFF
# T2: mouse Aβ 1-40 (mouse, UniProt P12023 672-711)
# T2 construct: range 1-40; The range counts on the Aβ peptide, not on the mouse APP precursor
# T2 peptide (looked up): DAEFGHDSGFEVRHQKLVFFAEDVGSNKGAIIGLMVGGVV
# T3: human Aβ fragment 10-20 (human, UniProt P05067 681-691)
# T3 construct: range 10-20; also called human amyloid beta 10-20
# T3 peptide (looked up): YEVHHQKLVFF
# T4: human Aβ fragment 16-25 (human, UniProt P05067 687-696)
# T4 construct: range 16-25; also called human amyloid beta 16-25
# T4 peptide (looked up): KLVFFAEDVG
# T5: human amyloid beta fragment 1-10 (human, UniProt P05067 672-681)
# T5 construct: range 1-10; also called human Aβ 1-10
# T5 peptide (looked up): DAEFRHDSGY
# Experiments:
# β-amyloid peptide (1-42) [1] = biological target: T6, β-amyloid peptide (1-42) (UniProt P05067 672-713); assay: BIAcore 2000 SPR; antibody captured, Aβ flowed over; biphasic, first affinity; Aβ 1-42; biphasic, high-affinity component
# T6 construct: range 1-42; The range 1-42 counts on the Aβ peptide, not on the APP precursor; also called Aβ 1-42; Amyloid-beta 1-42
# Procedure: (§1) Antibody affinity (KD=Kd/Ka) was determined using a BIAcore biosensor 2000 and data analyzed with BIAevaluation (v. 3.1) software. A capture antibody (rabbit anti-mouse Ig or anti-human Ig) was coupled via free amine groups to carboxyl groups on flow cell 2 of a biosensor chip (CM5) using N-ethyl-N-dimethylaminopropyl carbodiimide and N-hydroxysuccinimide (EDC/NHS). A non-specific rabbit IgG was coupled to flow cell 1 as a background control. Monoclonal antibodies were captured to yield 300 resonance units (RU). […] To regenerate the chip, bound anti-Aβ antibody was eluted from the chip using a wash with glycine-HCl (pH 2). A control injection containing no amyloid-beta served as a control for baseline subtraction.
# β-amyloid peptide (1-42) [2] = biological target: T6, β-amyloid peptide (1-42); assay: competitive ELISA on coated Aβ 1-42 against biotinylated Mu10D5; mean of three experiments (SD 0.6 µg/mL), second set; second set of three experiments (SD 0.6 µg/mL)
# Procedure: (§2) After washing the wells with phosphate buffered saline (PBS) containing 0.1% Tween 20 (Washing Buffer) using an ELISA plate washer, the wells were blocked by adding 300 μL of SuperBlock reagent (Pierce) per well. After 30 minutes of blocking, the wells were washed with Washing Buffer and excess liquid was removed.
# (§3) As a background control, 100 μl of ELISA Buffer was added. The ELISA plate was incubated at room temperature for 90 min. […] The plate was incubated at room temperature for 30 min and washed with Washing Buffer. For color development, 100 μl/well of ABTS Peroxidase Substrate (Kirkegaard & Perry Laboratories) was added. Color development was stopped by adding 100 μl/well of 2% oxalic acid. […] The absorbances were plotted against the log of the competitor concentration, curves were fit to the data points (using Prism) and the IC50 was determined for each antibody using methods well-known in the art.
# β-amyloid peptide (1-42) [3] = biological target: T6, β-amyloid peptide (1-42); assay: BIAcore 2000 SPR; antibody captured, Aβ flowed over; biphasic, second affinity; Aβ 1-42; biphasic, low-affinity component
# Procedure: as §1
# Amyloid-beta 1-40 = biological target: T7, Amyloid-beta 1-40 (UniProt P05067 672-711); assay: BIAcore 2000 SPR; antibody captured by anti-human Ig, Aβ flowed over; Aβ 1-40; monophasic
# T7 construct: range 1-40; The range 1-40 counts on the Aβ peptide, not on the APP precursor; also called Aβ 1-40
# Procedure: as §1
# [4] = biological target: T1, human amyloid beta fragment 1-20; assay: BIAcore, single concentration of peptide
# Source text: (§4) All dilutions were made with HEPES buffered saline containing Tween 20. A single concentration of a variety of fragments of human Aβ or mouse Aβ 1-40 (BioSource International) was used.
# mouse Aβ 1-40 = biological target: T2, mouse Aβ 1-40; assay: BIAcore, single concentration of peptide
# Source text: as §4
# human Aβ fragment 10-20 = biological target: T3, human Aβ fragment 10-20; assay: BIAcore, single concentration of peptide
# Source text: as §4
# human Aβ fragment 16-25 = biological target: T4, human Aβ fragment 16-25; assay: BIAcore, single concentration of peptide
# Source text: as §4
# [5] = biological target: T5, human amyloid beta fragment 1-10; assay: BIAcore, single concentration of peptide
# Source text: as §4
# β-amyloid peptide (1-42) [6] = biological target: T6, β-amyloid peptide (1-42); assay: competitive ELISA on coated Aβ 1-42 against biotinylated Mu10D5; mean of three experiments (SD 11.8 µg/mL), first set; first set of three experiments (SD 11.8 µg/mL)
# Procedure: as §2, §3
binder,measurement,setting,value
"humanized 10D5 antibody (antibody, human IgG1, kappa, V domains shown, also called Hu10D5) VH: QVTLKESGPVLVKPTETLTLTCTFSGFSLSTSGMGVSWIRQPPGKALEWLAHIYWDDDKRYNPSLKSRLTISKDTSKSQVVLTMTNMDPVDTATYYCVRRPITPVLVDAMDYWGQGTLVTVSS VL: DVVMTQSPLSLPVTLGQPASISCRSSQNIIHSNGNTYLEWYLQKPGQSPRLLIYKVSNRFSGVPDRFSGSGSGTDFTLKISRVEAEDVGVYYCFQGSHVPLTFGGGTKVEIKR",Kd,β-amyloid peptide (1-42) [1],0.19 nM
same,IC50,β-amyloid peptide (1-42) [2],16 µg/mL
same,Kd,β-amyloid peptide (1-42) [3],1020 nM
same,Kd,Amyloid-beta 1-40,209 nM
same,binding result,[4],binds
same,binding result,mouse Aβ 1-40,no binding
same,binding result,human Aβ fragment 10-20,no binding
same,binding result,human Aβ fragment 16-25,no binding
same,binding result,[5],binds
same,IC50,β-amyloid peptide (1-42) [6],49.1 µg/mL
